# According to PMC9907729 (Immunity, 2022):
# T1: MBP-tagged FoxP3^RBR-forkhead (mouse, UniProt Q99JB6 284-423)
# T1 sequence (looked up): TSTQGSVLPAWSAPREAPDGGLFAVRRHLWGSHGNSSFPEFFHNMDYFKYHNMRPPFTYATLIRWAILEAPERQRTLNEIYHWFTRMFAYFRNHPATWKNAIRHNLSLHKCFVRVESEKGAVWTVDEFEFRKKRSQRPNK
# What was measured:
# SEC-MALS = biological target: the molecule itself; assay: SEC-MALS
# [1] = biological target: T1, MBP-tagged FoxP3^RBR-forkhead; assay: pull-down
# SEC = biological target: the molecule itself; assay: SEC
Binder,stoichiometry N (SEC-MALS),other results
"NusA-tagged FoxP3^ΔN (domain or fragment, mouse, UniProt Q99JB6 188-423, looked up) GSYPLLANGVCKWPGCEKVFEEPEEFLKHCQADHLLDEKGKAQCLLQREVVQSLEQQLELEKEKLGAMQAHLAGKMALAKAPSVASMDKSSCCIVATSTQGSVLPAWSAPREAPDGGLFAVRRHLWGSHGNSSFPEFFHNMDYFKYHNMRPPFTYATLIRWAILEAPERQRTLNEIYHWFTRMFAYFRNHPATWKNAIRHNLSLHKCFVRVESEKGAVWTVDEFEFRKKRSQRPNK",2,
"GST-tagged Runx1 (residue 371–451) (domain or fragment, mouse, UniProt Q03347 371-451, looked up) GSPSYHLYYGASAGSYQFSMVGGERSPPRILPPCTNASTGAALLNPSLPSQSDVVETEGSHSNSPTNMPPARLEEAVWRPY",,binding result [1]: binds
"NusA-tagged FoxP3^RBR-forkhead R337Q (domain or fragment, mouse, UniProt Q99JB6 284-423, looked up) TSTQGSVLPAWSAPREAPDGGLFAVRRHLWGSHGNSSFPEFFHNMDYFKYHNMQPPFTYATLIRWAILEAPERQRTLNEIYHWFTRMFAYFRNHPATWKNAIRHNLSLHKCFVRVESEKGAVWTVDEFEFRKKRSQRPNK",2,
"Recombinant Y373V FoxP3^RBR-forkhead (domain or fragment, mouse, UniProt Q99JB6 284-423, looked up) TSTQGSVLPAWSAPREAPDGGLFAVRRHLWGSHGNSSFPEFFHNMDYFKYHNMRPPFTYATLIRWAILEAPERQRTLNEIYHWFTRMFAVFRNHPATWKNAIRHNLSLHKCFVRVESEKGAVWTVDEFEFRKKRSQRPNK",,stoichiometry N (SEC): 4
